Our source for the Kd and koff values is PMC7078148, “Interactions of 17β-Hydroxysteroid Dehydrogenase Type 10 and Cyclophilin D in Alzheimer's Disease” (Neurochemical Research, 2020).

This test concerns the target T1, human full length recombinant 17β-hydroxysteroid dehydrogenase type 10 protein (His tag) (human, UniProt Q99714 1-261).
T1 construct: 17β-hydroxysteroid dehydrogenase type 10, human, full length recombinant protein; The tetramer was not measured here; The His tag and 'full length' are stated only in the co-immunoprecipitation methods; The SPR reagent is described as human recombinant protein from the same supplier, with no catalogue number; also called 17β-HSD10; ERAB; source: bought: Fitzgerald (Fitzgerald Industries …)
T1 sequence (looked up): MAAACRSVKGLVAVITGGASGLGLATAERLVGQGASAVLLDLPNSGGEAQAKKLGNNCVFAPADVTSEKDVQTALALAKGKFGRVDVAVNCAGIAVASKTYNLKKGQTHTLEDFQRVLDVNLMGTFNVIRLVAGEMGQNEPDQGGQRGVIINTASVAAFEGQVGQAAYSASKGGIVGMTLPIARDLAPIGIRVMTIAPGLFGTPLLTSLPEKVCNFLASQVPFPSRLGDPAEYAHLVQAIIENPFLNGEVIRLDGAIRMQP
Description: SPR; cypD captured (response 1.5 nm) on amine-coupled anti-cypD antibody; 17β-HSD10 at 6, 10, 30, 60 and 100 nM injected 10 min, dissociation 15 min; HEPES 10 mM pH 7.4 with 250 µg/ml BSA, 15 mM KCl, 0.1 mM MgCl2; 25 °C, 20 µl/min; reference channel without cypD subtracted; global fit, 1:1 Langmuir model with mass transport. To be noted: both partners purified.

B1: human full length cyclophilin D protein (His tag) (enzyme)
chain: not shown
notes: cyclophilin D (mitochondrial peptidyl-prolyl cis-trans isomerase F), human, full length recombinant protein; The His tag and 'full length' are stated only in the co-immunoprecipitation methods; also called cypD; PPIF; source: bought: Fitzgerald (Fitzgerald Industries International), recombinant
B1: the Kd was 0.35 nM and the koff came to 5.8e-05 s⁻¹.

By Kd is commonly meant the constant that tells how readily two partners part at equilibrium. As usually defined, the koff is a measure of how fast the partners let go of each other.
